Test results from the RNAGym collection of RNA variant scans (doi:10.7554/elife.80360).

B1: HDV Ribozyme (parent)
chain: GGCCGGCAUGGUCCCAGCCUCCUCGCUGGCGCCGGCUGGGCAACAUUCCGAGGGGACCGUCCCCUCGGUAAUGGCGAAUGGGACCCA

Variants of: B1
Test: self-cleavage, relative activity (ratio to wild type); higher = more cleavage; co-transcriptional

| Variant | self-cleavage |
| --- | --- |
| G5C C7A | 0.119 |
| G59U G73U | 0.516 |
| G6U G54U | 0.643 |
| U23C A78G | 0.739 |
| C61A C75U | 0.178 |
| C33U C61G | 0.831 |
| G39U G80A | 0.151 |
| G50A C66A | 1.18 |
| C49G G59C | 0.793 |
| G52C G68U | 0.332 |
| G34U U47A | 0.128 |
| C14A C33U | 0.587 |
| G5A A8C | 0.0519 |
| G31C U79G | 0 |
| G6U C30A | 0.0791 |
| C24U U46G | 0.415 |
| C18A C36U | 0.0386 |
| A16C A43U | 0.0831 |
| G2U U20G | 0.0256 |
| A42U A51U | 0.509 |
| A42C G68C | 0.198 |
| G17C C41U | 0.0449 |
| G34C C36U | 0.0332 |
| C63A U65A | 0.427 |

| Variant | self-cleavage |
| --- | --- |
| U12A C24G | 0.0437 |
| C4A G31U | 0 |
| G38A U60G | 0.0386 |
| C33A G76C | 0.251 |
| C49U G53C | 1.05 |
| G6C C19U | 0.0773 |
| G1A A83G | 0.219 |
| G38A G80A | 0.0372 |
| C4A G39C | 0 |
| A45U G50A | 0.844 |
| C13A C62A | 0.158 |
| C24G C86A | 0.106 |
| A8G G67A | 0.755 |
| G53U G67A | 0.855 |
| G40A C57U | 1.13 |
| C18U C58G | 0.778 |
| C3A A42G | 0.0615 |
| C24U G59A | 0.623 |
| C22U A56C | 0.525 |
| G76A G82U | 0.601 |
| A8G A56G | 0.719 |
| U65G G67A | 0.812 |
| G55C G74C | 0.297 |
| A8G U65C | 1.05 |

| Variant | self-cleavage |
| --- | --- |
| A71G G81C | 0.131 |
| G1C C26G | 0.227 |
| C4U G82A | 0.0959 |
| C19G G25A | 0.113 |
| C41U C49U | 0.749 |
| G29U A45G | 0.0923 |
| C30G U37A | 0.0462 |
| G5U G35A | 0.156 |
| G50C C63G | 0.135 |
| C7G G29A | 0 |
| A45G A70C | 0.88 |
| G1C G54C | 0.26 |
| G67C G68C | 0.566 |
| G80C C86G | 0.192 |
| G2A G17A | 0.0604 |
| G40U U60A | 0.795 |
| C14U G81C | 0.806 |
| U27A U69G | 1.02 |
| A77U U79A | 0.32 |
| U20G C63A | 0.214 |
| G2U C24U | 0.0784 |
| U23G A43G | 0.138 |
| G28U G34C | 0.101 |
| C18G G28A | 0.0346 |

| Variant | self-cleavage |
| --- | --- |
| G38C G76C | 0.122 |
| G31A G54C | 0.254 |
| G6U C44G | 0.268 |
| U20C U23G | 0 |
| C41U G80A | 0.283 |
| C21G C61G | 0.0386 |
| C32G G35A | 0.154 |
| G25C C85G | 0.125 |
| G35U C58A | 0.554 |
| G6U A77G | 0.302 |
| A51U C75G | 0.344 |
| C19G U79C | 0.0264 |
| C3A G5U | 0.00831 |
| U23C G76C | 1.05 |
| U12A U79G | 0.302 |
| C57G G68U | 1.01 |
| A70C A83C | 0.434 |
| C58U U72C | 0.415 |
| U47A C62A | 1.01 |
| C33A C48A | 0.314 |
| G68A A70G | 1.07 |
| C33G G40U | 0.233 |
| G10C C26G | 1.14 |
| G1A G73C | 0.0739 |

| Variant | self-cleavage |
| --- | --- |
| G59U G74U | 0.502 |
| C62G G74C | 0.172 |
| U20G U37A | 0 |
| C22U A71U | 0.587 |
| G50A U72C | 0.45 |
| G55U G59A | 1.14 |
| A78U G80C | 0.174 |
| G6A U9C | 0.795 |
| C13A C62U | 0.214 |
| C26U G54A | 0.774 |
| G6C C63G | 0.246 |
| C57A C58A | 1.07 |
| U72G G74A | 0.431 |
| U60C C85G | 0.965 |
| G28C C75U | 0.0361 |
| C24U U72C | 0.104 |
| G17C C58G | 0.32 |
| U65A C75U | 0.277 |
| U27C U65G | 0.831 |
| C62U C84U | 0.819 |
| A45U A71C | 0.653 |
| C64G G81A | 0.222 |
| C19G U23G | 0.0811 |
| U12C C75U | 0.104 |

| Variant | self-cleavage |
| --- | --- |
| G40A C84G | 0.594 |
| G67C A78C | 0.0639 |
| U20G C57G | 0.208 |
| U37C G54C | 1.13 |
| U47G G80U | 0.163 |
| G2U A70G | 0.0715 |
| G29A G53U | 0.114 |
| U9G C30G | 0.145 |
| C24A U37G | 0.142 |
| G52C C85A | 0.969 |
| C4G C21A | 0.0292 |
| G2U C41G | 0.0119 |
| G52C C63G | 0.892 |
| G6A G82U | 0.188 |
| C36U A43C | 0 |
| C15G C62A | 0.554 |
| U72A C85U | 0.764 |
| U37G U79G | 0.115 |
| G11C G55C | 0.228 |
| A16C C85A | 0.875 |
| U23A G67A | 0.782 |
| C33A A45U | 0.232 |
| C15A G39U | 0.177 |
| C58U G67A | 0.909 |

| Variant | self-cleavage |
| --- | --- |
| A51G G55A | 0.972 |
| G11U U69C | 0.161 |
| C13A G40A | 0.233 |
| C62U C64U | 0.796 |
| C26A C57A | 1.02 |
| G6A C58U | 0.702 |
| C3U C57G | 0.803 |
| G11C U27C | 0.196 |
| A8U C49G | 0.76 |
| C41U G50U | 0.933 |
| U47G G50C | 0.831 |
| G11U G68A | 0.205 |
| C24A A51U | 0.747 |
| G11C A16C | 0.95 |
| U23A A83U | 0.449 |
| G28U C44G | 0.111 |
| G2A G11C | 0.0519 |
| G11C U72A | 0.0875 |
| G52A A87U | 0.897 |
| G25U A83U | 0.0791 |
| U79G A87G | 0.669 |
| G5U C18G | 0 |
| G11A C36U | 0.156 |
